The values below come from US20240261340A1, “Cutibacterium Acnes Biomimetic, Prebiotic, Probiotic and Postbiotic Compositions for Treatment of Skin Conditions” (Johnson & Johnson Consumer Inc., priority 2023, published 2024).

The subject of this experiment is Normal Human Epidermal Keratinocytes (NHEK). The experiment can be described thus: Lipid accumulation fluorescence assay (AdipoRed) on NHEK total lipids. As to conditions: 10 μg/ml, positive control. It is filed as cell-based. How it is done:
Lipid accumulation using a fluorescence assay was then assessed. In particular, following the results of the transcriptomic analysis, NHEK were treated for 6 days with conditioned media at concentrations of 0.1, 0.5, 1, and 2%. Adiponectin 10 μg/ml (Sigma, St Quentin Fallavier, France), known in the literature to induce lipid production in cell cultures, was used as positive control. To quantify and visualize total lipids after the 6 days of treatment, cells were treated with AdipoRed™ Assay Reagent (Lonza, Verviers, Belgium) a lipophilic reagent which fluoresces (excitation: 485 nm, emission: 572 nm). The intensity of the fluorescence is proportional to the lipid concentration and can be measured using a spectrophotometer (Envision, Perlin Elmer, Villebon-sur-Yvette, France). Images were acquired using a fluorescence microscope (Axio imager, ZEISS, Rueil Malmaison France) with magnification ×20.
Adiponectin induced an increase in fluorescence signal after 6 days of treatment (+25%) which validated the test. […] This experiment was repeated increasing the concentration of the conditioned media to 5% and 10% and reducing the time of treatment to 1 day. Non-conditioned media at 5% and 10% were also tested as negative controls and Adiponectin (10 μg/ml) as positive control.

B1: Adiponectin (protein, UniProt Q15848 19-244, looked up)
Adiponectin: ETTTQGPGVLLPLPKGACTGWMAGIPGHPGHNGAPGRDGRDGTPGEKGEKGDPGLIGPKGDIGETGVPGAEGPRGFPGIQGRKGEPGEGAYVYRSAFSVGLETYVTIPNMPIRFTKIFYNQQNHYDGSTGKFHCNIPGLYYFAYHITVYMKDVKVSLFKKDKAMLFTYDQYQENNVDQASGSVLLHLEVGDQVWLQVYGEGERNGLYADNDNDSTFTGFLLYHDTN
notes: known in the literature to induce lipid production in cell cultures; positive control (Sigma)
For B1, where the note is “1 day of treatment”, the “increase in fluorescence (total lipids)” value is 250%. Also, the “increase in fluorescence signal (total lipids)” value (6 days of treatment) was “+25%”.
